Measurements as given in patent US20050282743A1, “Molecular interactions in cells” (Arbor Vita Corporation, priority 2001, published 2005).
Values belong to the binder of their own block, whether it stands above or below them.

What was measured:
Experiment in all cases: G' assay
[1] = molecular target: T1, GST-LIM Protein PDZ domain 1 (Homo sapiens (Human)), Q96HC4
T1 chain: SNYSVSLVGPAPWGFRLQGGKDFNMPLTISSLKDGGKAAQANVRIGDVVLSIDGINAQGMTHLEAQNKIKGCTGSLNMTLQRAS

[2] = molecular target: T2, GST-KIAA0973 PDZ domain 1 (Homo sapiens (Human)), Q9Y2H9
T2 chain: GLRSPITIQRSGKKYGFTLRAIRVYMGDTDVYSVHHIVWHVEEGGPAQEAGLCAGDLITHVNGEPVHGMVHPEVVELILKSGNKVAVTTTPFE

[3] = molecular target: T3, GST-MUPP1 PDZ domain 3 (Homo sapiens (Human)), O75970
T3 chain: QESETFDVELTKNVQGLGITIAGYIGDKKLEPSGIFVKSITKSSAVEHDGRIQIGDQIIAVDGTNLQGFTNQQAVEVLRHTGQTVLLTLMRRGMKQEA

[4] = molecular target: T4, GST-DVL2 PDZ domain 1 (Homo sapiens (Human)), O14641
T4 chain: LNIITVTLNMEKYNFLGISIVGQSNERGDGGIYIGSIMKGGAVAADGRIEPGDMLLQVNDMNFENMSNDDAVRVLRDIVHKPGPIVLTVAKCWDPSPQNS

[5] = molecular target: T5, GST-AF6 PDZ domain 1 (Homo sapiens (Human)), P55196
T5 chain: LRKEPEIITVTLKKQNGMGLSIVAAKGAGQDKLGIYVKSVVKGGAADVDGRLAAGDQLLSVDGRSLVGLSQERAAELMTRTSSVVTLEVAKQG

[6] = molecular target: T6, GST-KIAA0561 PDZ domain 1 (Homo sapiens (Human)), O60307
T6 chain: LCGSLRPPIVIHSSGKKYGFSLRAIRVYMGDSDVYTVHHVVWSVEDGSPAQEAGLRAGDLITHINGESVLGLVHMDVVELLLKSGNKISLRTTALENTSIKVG

[7] = molecular target: GST-PAR3 PDZ domain 3 (Homo sapiens (Human)), Q8TEW0
Chain of GST-PAR3 PDZ domain 3 (Homo sapiens (Human)), Q8TEW0 (Q8TEW0 579-681): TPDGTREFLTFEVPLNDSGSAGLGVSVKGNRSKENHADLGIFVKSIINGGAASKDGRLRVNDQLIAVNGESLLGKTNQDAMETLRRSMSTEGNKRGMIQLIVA

[8] = molecular target: T7, GST-KIAA0807(S) PDZ domain 1 (Homo sapiens (Human)), Q6P0Q8
T7 chain: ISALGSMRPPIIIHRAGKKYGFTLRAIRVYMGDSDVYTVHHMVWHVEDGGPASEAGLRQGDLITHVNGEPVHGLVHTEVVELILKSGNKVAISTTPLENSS

[9] = molecular target: T8, GST-MINT1 PDZ domain 2 (Mus musculus (Mouse)), B2RUJ5
T8 chain: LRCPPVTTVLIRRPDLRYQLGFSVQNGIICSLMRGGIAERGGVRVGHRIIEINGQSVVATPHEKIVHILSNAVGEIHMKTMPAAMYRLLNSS

[10] = molecular target: T9, GST-MUPP1 PDZ domain 11 (Homo sapiens (Human)), O75970
T9 chain: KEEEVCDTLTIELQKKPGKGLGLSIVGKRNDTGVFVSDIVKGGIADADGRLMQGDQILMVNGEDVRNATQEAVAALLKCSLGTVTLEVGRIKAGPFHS

[11] = molecular target: T10, GST-MINT1 PDZ domains 1, 2, Q02410
T10 chain: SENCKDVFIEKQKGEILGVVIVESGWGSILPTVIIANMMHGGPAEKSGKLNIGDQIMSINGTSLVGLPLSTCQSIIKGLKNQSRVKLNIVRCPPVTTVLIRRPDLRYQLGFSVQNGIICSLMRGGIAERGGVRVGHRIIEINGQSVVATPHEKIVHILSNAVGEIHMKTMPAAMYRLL

[12] = molecular target: GST-KIAA807 [GST: P08515]
Chain of GST-KIAA807 [GST: P08515] (P08515 whole entry, the tested form may be a part): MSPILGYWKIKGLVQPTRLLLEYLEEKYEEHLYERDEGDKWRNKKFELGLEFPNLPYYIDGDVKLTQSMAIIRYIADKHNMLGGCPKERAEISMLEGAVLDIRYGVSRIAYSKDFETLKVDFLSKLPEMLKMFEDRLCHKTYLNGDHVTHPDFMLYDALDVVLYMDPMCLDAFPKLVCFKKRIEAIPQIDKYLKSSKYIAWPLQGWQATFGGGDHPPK

[13] = molecular target: GST-KIAA0316 PDZ domain 1 (Homo sapiens (Human)), Q14CM0
Chain of GST-KIAA0316 PDZ domain 1 (Homo sapiens (Human)), Q14CM0 (Q14CM0 72-159): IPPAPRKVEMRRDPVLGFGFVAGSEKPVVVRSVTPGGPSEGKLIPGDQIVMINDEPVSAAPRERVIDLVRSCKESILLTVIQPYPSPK

[14] = molecular target: GST-BAI-1 Associated Protein PDZ domain 2 (Mus musculus (Mouse)), Q6RHR9
Chain of GST-BAI-1 Associated Protein PDZ domain 2 (Mus musculus (Mouse)), Q6RHR9 (Q6RHR9 455-558): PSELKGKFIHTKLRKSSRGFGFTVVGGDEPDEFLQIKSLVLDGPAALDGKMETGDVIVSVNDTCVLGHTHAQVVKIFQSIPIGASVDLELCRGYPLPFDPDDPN

[15] = molecular target: T11, GST-APXL-1 PDZ domain 1 (Homo sapiens (Human)), Q13796
T11 chain: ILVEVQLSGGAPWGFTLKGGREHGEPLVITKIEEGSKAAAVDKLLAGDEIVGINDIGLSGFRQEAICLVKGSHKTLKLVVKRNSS

[16] = molecular target: GST-KIAA1634 PDZ domain 1 (Homo sapiens (Human)), Q5TCQ9
Chain of GST-KIAA1634 PDZ domain 1 (Homo sapiens (Human)), Q5TCQ9 (Q5TCQ9 401-502): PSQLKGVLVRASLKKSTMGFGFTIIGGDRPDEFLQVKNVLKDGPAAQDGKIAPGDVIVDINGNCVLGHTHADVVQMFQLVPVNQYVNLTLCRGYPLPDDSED

[17] = molecular target: T12, GST-Shank 1 PDZ domain 1 (Homo sapiens (Human)), Q9UPX8
T12 chain: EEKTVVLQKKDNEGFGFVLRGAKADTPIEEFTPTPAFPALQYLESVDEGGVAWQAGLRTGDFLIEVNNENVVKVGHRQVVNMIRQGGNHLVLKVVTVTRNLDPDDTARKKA

[18] = molecular target: T13, GST-FLJ 10324 PDZ domain 1 [GST: P08515]
T13 chain: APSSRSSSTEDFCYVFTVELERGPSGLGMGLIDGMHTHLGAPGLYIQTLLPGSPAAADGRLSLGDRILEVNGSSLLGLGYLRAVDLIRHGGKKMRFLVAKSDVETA

[19] = molecular target: T14, GST-X-11 beta PDZ domain 2 (Rattus norvegicus (Rat)), O35431
T14 chain: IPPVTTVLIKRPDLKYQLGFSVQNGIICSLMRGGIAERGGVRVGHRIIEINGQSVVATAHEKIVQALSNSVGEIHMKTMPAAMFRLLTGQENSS

[20] = molecular target: T15, GST-KIAA1719 PDZ domain 3 (Homo sapiens (Human)), Q9C0E4
T15 chain: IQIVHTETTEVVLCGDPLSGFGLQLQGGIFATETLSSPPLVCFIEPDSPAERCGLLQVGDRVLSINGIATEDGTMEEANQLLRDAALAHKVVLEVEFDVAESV

[21] = molecular target: T16, GST-KIAA1719 PDZ domain 6 (Homo sapiens (Human)), Q9C0E4
T16 chain: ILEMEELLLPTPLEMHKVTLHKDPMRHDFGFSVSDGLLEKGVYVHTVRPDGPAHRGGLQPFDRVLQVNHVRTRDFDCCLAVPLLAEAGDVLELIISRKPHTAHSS

[22] = molecular target: T17, GST-GRIP 1 PDZ domain 6 (Mus musculus (Mouse)), Q925T6
T17 chain: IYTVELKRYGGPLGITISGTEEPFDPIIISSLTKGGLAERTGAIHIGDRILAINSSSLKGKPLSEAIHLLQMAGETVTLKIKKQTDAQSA
Further: key of the grades not given here.

Classification [1]: 1 A450 class
Classification [2]: 2 A450 class
Classification [3]: 1 A450 class
Classification [4]: 1 A450 class
Classification [5]: 1 A450 class
Classification [6]: 1 A450 class
Classification [7]: 1 A450 class
Classification [8]: 1 A450 class
Classification [9]: 2 A450 class
Classification [10]: 2 A450 class
Classification [11]: 2 A450 class
Classification [12]: 1 A450 class
Classification [13]: 2 A450 class
B1: MINT-3 (peptide)
peptide: KTMPAATYRLLTGQEQPVYL
modifications: not checked

Classification [14]: 3 A450 class
Classification [15]: 2 A450 class
Classification [16]: 2 A450 class
Classification [17]: 1 A450 class
Classification [2]: 1 A450 class
Classification [18]: 1 A450 class
Classification [4]: 2 A450 class
Classification [19]: 1 A450 class
Classification [20]: 1 A450 class
Classification [8]: 5 A450 class
Classification [9]: 2 A450 class
Classification [11]: 1 A450 class
Classification [21]: 1 A450 class
Classification [22]: 1 A450 class
B2: CD68 (peptide)
peptide: ALVLIAFCIIRRRPSAYQAL
modifications: not checked
